Reference: patent US5622930A, “C1 inhibitor muteins and uses thereof” (CLB, priority 1991, dated 1997)

Test system: C1s
Experiment: radioimmune assay of complex formation of C1 inhibitor muteins with solid phase C1s
Assay type: binding
Settings: muteins altered only at P3 (position 442, substituted for Val), FIG. 3
Text: FIG. 2 presents a generalized assay screening format for determining both the inhibitory (complex formation) or protease sensitivity (inactivation) of the C1 muteins. The latter measures inactivation of the C1 inhibitor muteins by non-target proteases. This procedure is also described by Eldering et al., 1988, in J. of Biological Chem., 263: 11776. Modifications of these methods are also known in the art.
Generally, inhibitor activity of C1 muteins may be determined by measuring complex formation between the C1 inhibitor and a substrate. The preferred substrates are, of course, C1s, Kallikrein, B-12a, and plasmin. The C1 inhibitor, or C1 inhibitor muteins, inhibit the protease activity of the substrate by forming a covalent bond with the substrate. These molecules were purified by techniques known in the art, or as described by Liebermann, H., etal., 1984, J. Mol. Biol., 177: 531 and Nuijens, J.,et al., 1987, Immunology, 61: 387.
The preferred assay is a radioimmune assay based on the observation that functional C1 inhibitor muteins bind to activated target substrate, such as C1s. The assay can be performed in several ways, but preferably purified activated C1s is coupled to a solid matrix, preferably Sepharose 4B via cyanogen bromide as is known in the art. Coupled C1s is incubated in an appropriately buffered solution containing, if desired, a small amount of detergent, preferably Tween-20. The latter is used at a concentration of about 0.1% (w/v). The capacity of the C1 inhibitor muteins to complex with the target substrate can be detected using anti-C1 inhibitor mutein antibody. Alternatively, a radiolabelled second antibody can be used to detect the bound first antibody. The antibody may be polyclonal or monoclonal and is incubated for a sufficient time to permit detectible binding of the antibody to the C1 inhibitor to occur. After the appropriate washing steps are conducted whereby non-specifically bound radiolabelled antibody is separated from antibody bound to C1 inhibitor muteins, the amount of radioactivity associated with the latter is determined. In this way, and incorporating the appropriate controls in the assay scheme, the inhibitory capacity of the C1 muteins is determined.
The general procedures for determining both the inhibitory or non-target protease sensitivity of the C1 inhibitor muteins are shown in FIG. 2. The procedures involving C1s will be described briefly, the procedures for the other substrates is similar with modifications as noted by Eldering, 1988, J. Biological Chem., 263: 11776, and as shown by Nuijens et al., above.
As mentioned above, the radioimmune assay to determine the C1 inhibitor activity of the various muteins is based on the observation that functional C1 inhibitor mutein will bind to activated C1s. Thus, purified activated C1s is coupled to CNBr Sepharose 4B and suspended in phosphate-buffered saline, pH 7.4 10 mM EDTA, and 0.1% (w/v) Tween-20. Next, 0.3 ml of this mixture containing 1.5 μg of activated C1s is incubated with various dilutions of the C1 inhibitor muteins for 5 hours. The Sepharose 4B beads are collected, extensively washed, and complexed C1 inhibitor mutein incubated (>4hours) with ^125 I-polyclonal anti-C1 antibody. The antibody is described by Hack, et al., above. The Sepharose beads are washed, and bound radioactivity determined using a LKB 1260 multigamma II gamma counter.

| Molecule | complex formation (inhibitory activity), order among P3 muteins |
| --- | --- |
| P3-arg: C1 inhibitor mutein with Arg substituted for Val at position 442 (P3) (protein, UniProt P05155 23-500, looked up, variant V442R) Plasma protease C1 inhibitor: NPNATSSSSQDPESLQDRGEGKVATTVISKMLFVEPILEVSSLPTTNSTTNSATKITANTTDEPTTQPTTEPTTQPTIQPTQPTTQLPTDSPTQPTTGSFCPGPVTLCSDLESHSTEAVLGDALVDFSLKLYHAFSAMKKVETNMAFSPFSIASLLTQVLLGAGENTKTNLESILSYPKDFTCVHQALKGFTTKGVTSVSQIFHSPDLAIRDTFVNASRTLYSSSPRVLSNNSDANLELINTWVAKNTNNKISRLLDSLPSDTRLVLLNAIYLSAKWKTTFDPKKTRMEPFHFKNSVIKVPMMNSKKYPVAHFIDQTLKAKVGQLQLSHNLSLVILVPQNLKHRLEDMEQALSPSVFKAIMEKLEMSKFQPTLLTLPRIKVTTSQDMLSIMEKLEFFDFSYDLNLCGLTEDPDLQVSAMQHQTVLELTETGVEAAAASAISRARTLLVFEVQQPFLFVLWDQQHKFPVFMGRVYDPRA | Arg=Gly<Ala<Leu<wild-type=Thr |
| P3-leu: C1 inhibitor mutein with Leu substituted for Val at position 442 (P3) (protein, UniProt P05155 23-500, looked up, variant V442L) Plasma protease C1 inhibitor: NPNATSSSSQDPESLQDRGEGKVATTVISKMLFVEPILEVSSLPTTNSTTNSATKITANTTDEPTTQPTTEPTTQPTIQPTQPTTQLPTDSPTQPTTGSFCPGPVTLCSDLESHSTEAVLGDALVDFSLKLYHAFSAMKKVETNMAFSPFSIASLLTQVLLGAGENTKTNLESILSYPKDFTCVHQALKGFTTKGVTSVSQIFHSPDLAIRDTFVNASRTLYSSSPRVLSNNSDANLELINTWVAKNTNNKISRLLDSLPSDTRLVLLNAIYLSAKWKTTFDPKKTRMEPFHFKNSVIKVPMMNSKKYPVAHFIDQTLKAKVGQLQLSHNLSLVILVPQNLKHRLEDMEQALSPSVFKAIMEKLEMSKFQPTLLTLPRIKVTTSQDMLSIMEKLEFFDFSYDLNLCGLTEDPDLQVSAMQHQTVLELTETGVEAAAASAISLARTLLVFEVQQPFLFVLWDQQHKFPVFMGRVYDPRA | Arg=Gly<Ala<Leu<wild-type=Thr |
| P3-thr: C1 inhibitor mutein with Thr substituted for Val at position 442 (P3) (protein, UniProt P05155 23-500, looked up, variant V442T) Plasma protease C1 inhibitor: NPNATSSSSQDPESLQDRGEGKVATTVISKMLFVEPILEVSSLPTTNSTTNSATKITANTTDEPTTQPTTEPTTQPTIQPTQPTTQLPTDSPTQPTTGSFCPGPVTLCSDLESHSTEAVLGDALVDFSLKLYHAFSAMKKVETNMAFSPFSIASLLTQVLLGAGENTKTNLESILSYPKDFTCVHQALKGFTTKGVTSVSQIFHSPDLAIRDTFVNASRTLYSSSPRVLSNNSDANLELINTWVAKNTNNKISRLLDSLPSDTRLVLLNAIYLSAKWKTTFDPKKTRMEPFHFKNSVIKVPMMNSKKYPVAHFIDQTLKAKVGQLQLSHNLSLVILVPQNLKHRLEDMEQALSPSVFKAIMEKLEMSKFQPTLLTLPRIKVTTSQDMLSIMEKLEFFDFSYDLNLCGLTEDPDLQVSAMQHQTVLELTETGVEAAAASAISTARTLLVFEVQQPFLFVLWDQQHKFPVFMGRVYDPRA | Arg=Gly<Ala<Leu<wild-type=Thr |
| P3-gly: C1 inhibitor mutein with Gly substituted for Val at position 442 (P3) (protein, UniProt P05155 23-500, looked up, variant V442G) Plasma protease C1 inhibitor: NPNATSSSSQDPESLQDRGEGKVATTVISKMLFVEPILEVSSLPTTNSTTNSATKITANTTDEPTTQPTTEPTTQPTIQPTQPTTQLPTDSPTQPTTGSFCPGPVTLCSDLESHSTEAVLGDALVDFSLKLYHAFSAMKKVETNMAFSPFSIASLLTQVLLGAGENTKTNLESILSYPKDFTCVHQALKGFTTKGVTSVSQIFHSPDLAIRDTFVNASRTLYSSSPRVLSNNSDANLELINTWVAKNTNNKISRLLDSLPSDTRLVLLNAIYLSAKWKTTFDPKKTRMEPFHFKNSVIKVPMMNSKKYPVAHFIDQTLKAKVGQLQLSHNLSLVILVPQNLKHRLEDMEQALSPSVFKAIMEKLEMSKFQPTLLTLPRIKVTTSQDMLSIMEKLEFFDFSYDLNLCGLTEDPDLQVSAMQHQTVLELTETGVEAAAASAISGARTLLVFEVQQPFLFVLWDQQHKFPVFMGRVYDPRA | Arg=Gly<Ala<Leu<wild-type=Thr |
| wild-type: wild type C1 inhibitor, plasma glycoprotein serine protease inhibitor with isoleucine and valine at positions 440 and 442 (protein, UniProt P05155 23-500, looked up) Plasma protease C1 inhibitor: NPNATSSSSQDPESLQDRGEGKVATTVISKMLFVEPILEVSSLPTTNSTTNSATKITANTTDEPTTQPTTEPTTQPTIQPTQPTTQLPTDSPTQPTTGSFCPGPVTLCSDLESHSTEAVLGDALVDFSLKLYHAFSAMKKVETNMAFSPFSIASLLTQVLLGAGENTKTNLESILSYPKDFTCVHQALKGFTTKGVTSVSQIFHSPDLAIRDTFVNASRTLYSSSPRVLSNNSDANLELINTWVAKNTNNKISRLLDSLPSDTRLVLLNAIYLSAKWKTTFDPKKTRMEPFHFKNSVIKVPMMNSKKYPVAHFIDQTLKAKVGQLQLSHNLSLVILVPQNLKHRLEDMEQALSPSVFKAIMEKLEMSKFQPTLLTLPRIKVTTSQDMLSIMEKLEFFDFSYDLNLCGLTEDPDLQVSAMQHQTVLELTETGVEAAAASAISVARTLLVFEVQQPFLFVLWDQQHKFPVFMGRVYDPRA | Arg=Gly<Ala<Leu<wild-type=Thr |
| P3-ala: C1 inhibitor mutein with Ala substituted for Val at position 442 (P3) (protein, UniProt P05155 23-500, looked up, variant V442A) Plasma protease C1 inhibitor: NPNATSSSSQDPESLQDRGEGKVATTVISKMLFVEPILEVSSLPTTNSTTNSATKITANTTDEPTTQPTTEPTTQPTIQPTQPTTQLPTDSPTQPTTGSFCPGPVTLCSDLESHSTEAVLGDALVDFSLKLYHAFSAMKKVETNMAFSPFSIASLLTQVLLGAGENTKTNLESILSYPKDFTCVHQALKGFTTKGVTSVSQIFHSPDLAIRDTFVNASRTLYSSSPRVLSNNSDANLELINTWVAKNTNNKISRLLDSLPSDTRLVLLNAIYLSAKWKTTFDPKKTRMEPFHFKNSVIKVPMMNSKKYPVAHFIDQTLKAKVGQLQLSHNLSLVILVPQNLKHRLEDMEQALSPSVFKAIMEKLEMSKFQPTLLTLPRIKVTTSQDMLSIMEKLEFFDFSYDLNLCGLTEDPDLQVSAMQHQTVLELTETGVEAAAASAISAARTLLVFEVQQPFLFVLWDQQHKFPVFMGRVYDPRA | Arg=Gly<Ala<Leu<wild-type=Thr |
